Columns and labels:
[1] = molecular target: T1, human mammaglobin-A (Mam-A) protein, antigen of the ELISA and SPR (Homo sapiens, UniProt Q13296); assay: ELISA; indirect ELISA of the mAbs on Mam-A
T1 construct: mammaglobin-A, human

[2] = molecular target: T2, mammaglobin-A (Mam-A) on breast cancer cells and in breast cancer tissue (Homo sapiens, UniProt Q13296); assay: immunostaining of cells or tissue; ZR75.1 cells and tumor slides (GFP in the cytoplasm) fixed with cold methanol/acetone, mAb then AF594-labeled anti-mouse IgG, confocal microscopy; details: one partner purified
T2 construct: mammaglobin-A, endogenous in human breast cancer cells and tissue; Cells were fixed with cold methanol/acetone before staining; also called membrane-associated Mam-A; source: endogenous, breast cancer cell lines (ZR75.1, MCF-7, SKBR3, MDA-MB-231) and breast cancer tissue sections
T2 sequence (Q13296 19-93): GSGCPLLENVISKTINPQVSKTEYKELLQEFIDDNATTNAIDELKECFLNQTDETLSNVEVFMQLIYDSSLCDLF

Peptide 733-3RE-2 = molecular target: T3, Peptide 733-3RE-2 (Homo sapiens); assay: immunostaining of cells or tissue; pre-blocking test: synthetic peptide pre-incubated with mAb785; binding of the peptide read from the loss of immunostaining of breast cancer sections; details: both partners purified
T3 construct: residues 42-51 of human mammaglobin-A; also called truncated peptide without PV; source: synthetic peptide
T3 chain: YKELLQEFID

Measured: binding result

T1 sequence (Q13296 19-93): as above

B1: mAb785 (antibody, V domains shown)
VH: EVKLVESGGGLVKPGGSLKLSCAASGFTLSNHGMSWVRQTSEKRLEWVASISIRGNTYYLDSVEGRFTISRDDARNILYLQMSGLRSEDTAIYYCTYFTSVVWGQGTTLTVSS
VL: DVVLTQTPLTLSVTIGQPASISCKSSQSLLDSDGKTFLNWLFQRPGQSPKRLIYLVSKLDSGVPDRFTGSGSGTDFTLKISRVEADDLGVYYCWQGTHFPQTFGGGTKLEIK
notes: Whole monoclonal antibody raised against human Mam-A; detected with anti-mouse IgG secondary antibodies, so probably a mouse IgG; also called anti-Mam-A mAb785
binds: all assays above
